From patent US20230303994 come the findings set out here.

First the molecules themselves.
B1: trypsin variant SEQ ID NO: 53 (protein)
chain: IVGGYTCAANSIPYQVSLNSGSHRCGGSLINSQWVVSAAHCYKPRIQVRLGEHNIDVLEGNEQFINAAKIITHPNFNGNTLDNDIMLIKLSSPATLNSRVATVSLPRSCAAAGTECLISGWGNTKSSGSSYPSLLQCLKAPVLSDSSCKSSYPGQITGNMICVGFLEGGKDACQGDSGGPVVCNGQLQGIVSSGYGCAQKNKPGVYTKVCNYVNWIQQTIAAN
B2: trypsin variant SEQ ID NO: 56 (protein)
chain: B1 chain with P44S, D56N
B3: trypsin variant SEQ ID NO: 73 (protein)
chain: B1 chain with P44S, G78A
B4: trypsin variant SEQ ID NO: 74 (protein)
chain: B1 chain with P44S, G78P
B5: trypsin variant SEQ ID NO: 77 (protein)
chain: B1 chain with D56H, R99H, R107T, K125C, Y131M
B6: trypsin variant SEQ ID NO: 78 (protein)
chain: B1 chain with P44S, D56H, G78P, R99H, R107T, K125C
B7: trypsin variant SEQ ID NO: 57 (protein)
chain: B1 chain with P44S, D56H
B8: trypsin variant SEQ ID NO: 9 (protein)
chain: B1 chain with P44S, R99Y
B9: trypsin variant SEQ ID NO: 21 (protein)
chain: B1 chain with P44S, K125H
B10: trypsin variant SEQ ID NO: 50 (protein)
chain: B1 chain with R24N, P44S
B11: trypsin variant SEQ ID NO: 30 (protein)
chain: B1 chain with R24S, P44S
B12: trypsin variant SEQ ID NO: 33 (protein)
chain: B1 chain with P44S, R107T
B13: trypsin variant SEQ ID NO: 37 (protein)
chain: B1 chain with P44S, Y131T
B14: trypsin variant SEQ ID NO: 27 (protein)
chain: B1 chain with P44S, K170N
B15: trypsin variant SEQ ID NO: 47 (protein)
chain: B1 chain with R24I, P44S
B16: trypsin variant SEQ ID NO: 42 (protein)
chain: B1 chain with P44S
B17: trypsin variant SEQ ID NO: 48 (protein)
chain: B1 chain with R24M, P44S
B18: trypsin variant SEQ ID NO: 44 (protein)
chain: B1 chain with P44S, A172S
B19: trypsin variant SEQ ID NO: 26 (protein)
chain: B1 chain with P44S, K170G
B20: trypsin variant SEQ ID NO: 51 (protein)
chain: B1 chain with R24K, P44S
B21: trypsin variant SEQ ID NO: 5 (protein)
chain: B1 chain with P44S, R99L
B22: trypsin variant SEQ ID NO: 35 (protein)
chain: B1 chain with P44S, Y131L
B23: trypsin variant SEQ ID NO: 22 (protein)
chain: B1 chain with P44S, K125L
B24: trypsin variant SEQ ID NO: 6 (protein)
chain: B1 chain with P44S, R99F
B25: trypsin variant SEQ ID NO: 34 (protein)
chain: B1 chain with P44S, Y131A
B26: trypsin variant SEQ ID NO: 31 (protein)
chain: B1 chain with R24Q, P44S
B27: trypsin variant SEQ ID NO: 28 (protein)
chain: B1 chain with R24V, P44S
B28: trypsin variant SEQ ID NO: 46 (protein)
chain: B1 chain with R24A, P44S
B29: trypsin variant SEQ ID NO: 49 (protein)
chain: B1 chain with R24T, P44S
B30: trypsin variant SEQ ID NO: 40 (protein)
chain: B1 chain with P44S, Y131E
B31: trypsin variant SEQ ID NO: 43 (protein)
chain: B1 chain with P44S, A172T
B32: trypsin variant SEQ ID NO: 32 (protein)
chain: B1 chain with P44S
B33: trypsin variant SEQ ID NO: 29 (protein)
chain: B1 chain with R24L, P44S
B34: trypsin variant SEQ ID NO: 38 (protein)
chain: B1 chain with P44S, Y131C
B35: trypsin variant SEQ ID NO: 45 (protein)
chain: B1 chain with P44S, A172C
B36: trypsin variant SEQ ID NO: 39 (protein)
chain: B1 chain with P44S, Y131N
B37: trypsin variant SEQ ID NO: 23 (protein)
chain: B1 chain with P44S, K125Q

Residue numbers refer to the chain shown, from its start.

The target in the first data set is pre-pro-insulin glargine.
Consider B1, for which the Purity Insulin Glargine came out at 81.3 area %, the Yield is greater than 80%, the desArg is less than 0.5 area % and the desThr amounted to 2.1 area %.

B2 registered a Purity Insulin Glargine of 85.3 area %, a Yield greater than 90%, a desArg of less than 0.5 area % and a desThr of 2 area %.

B3 registered a Purity Insulin Glargine of 83 area %, a Yield greater than 90%, a desArg of less than 0.5 area % and a desThr of 2.2 area %.

B4 returned a Purity Insulin Glargine of 82.4 area %, a Yield greater than 80%, a desArg of less than 0.5 area % and a desThr of 2.1 area %.

For the protein B5, the Purity Insulin Glargine was found to be 88.2 area %, the Yield was greater than 90%, the desArg was found to be 0.5 area % and the desThr stood at 1.6 area %.

Take B6: the Purity Insulin Glargine came out at 85.1 area %, the Yield is greater than 90%, the desArg is 0.5 area % and the desThr stood at 1.6 area %.

In turn, B7 showed a Purity Insulin Glargine of 87.5 area %, a Yield greater than 90%, a desArg of less than 0.5 area % and a desThr of 2.3 area %.

In turn, B8 came in with a Purity Insulin Glargine of 85.2 area %, a Yield greater than 90%, a desArg of less than 0.5 area % and a desThr of 3.6 area %.

Another data set concerns the target pre-pro-human insulin.
Consider B1, for which the “Activity PPI cleavage” value is given as “yes” and the Selectivity is listed as greater than 90%.

For B9, the “Activity PPI cleavage” value is recorded as “yes” and the Selectivity is greater than 90%.

Take B10: the “Activity PPI cleavage” value is listed as “yes” and the Selectivity is on record as greater than 65%.

For B11, the “Activity PPI cleavage” value is listed as “yes” and the Selectivity is greater than 70%.

Regarding B12, the “Activity PPI cleavage” value is on record as “yes” and the Selectivity is greater than 90%.

On to B13, for which the “Activity PPI cleavage” value is listed as “yes” and the Selectivity is greater than 90%.

B14: the “Activity PPI cleavage” value was “yes” and the Selectivity is greater than 80%.

Take B15: the “Activity PPI cleavage” value is on record as “yes” and the Selectivity is reported as greater than 90%.

As for B2, the “Activity PPI cleavage” value is “yes” and the Selectivity is reported as greater than 90%.

Consider B16, for which the “Activity PPI cleavage” value is “yes” and the Selectivity is given as greater than 90%.

With B17, the “Activity PPI cleavage” value was “yes” and the Selectivity was greater than 80%.

As for B3, the “Activity PPI cleavage” value is recorded as “yes” and the Selectivity is greater than 90%.

For B18, the “Activity PPI cleavage” value was “yes” and the Selectivity is reported as greater than 80%.

In the case of B19, the “Activity PPI cleavage” value is given as “yes” and the Selectivity is recorded as greater than 80%.

Turning to B20, the “Activity PPI cleavage” value is on record as “yes” and the Selectivity is greater than 70%.

For the protein B21, the “Activity PPI cleavage” value was “yes” and the Selectivity is greater than 90%.

For B22, the “Activity PPI cleavage” value is “yes” and the Selectivity was greater than 90%.

B23: the “Activity PPI cleavage” value was “yes” and the Selectivity is greater than 90%.

For the protein B24, the “Activity PPI cleavage” value is “yes” and the Selectivity was greater than 90%.

In the case of B25, the “Activity PPI cleavage” value is listed as “yes” and the Selectivity is on record as greater than 90%.

For the protein B26, the “Activity PPI cleavage” value is “yes” and the Selectivity is on record as greater than 62.1%.

B27: the “Activity PPI cleavage” value is listed as “yes” and the Selectivity is given as greater than 90%.

For B28, the “Activity PPI cleavage” value is “yes” and the Selectivity is reported as greater than 70%.

For the protein B4, the “Activity PPI cleavage” value is listed as “yes” and the Selectivity was greater than 90%.

Turning to B29, the “Activity PPI cleavage” value was “yes” and the Selectivity was greater than 80%.

With B5, the “Activity PPI cleavage” value was “yes” and the Selectivity is reported as greater than 90%.

For the protein B30, the “Activity PPI cleavage” value is listed as “yes” and the Selectivity is greater than 80%.

As for B31, the “Activity PPI cleavage” value is given as “yes” and the Selectivity was greater than 80%.

For the protein B32, the “Activity PPI cleavage” value is “yes” and the Selectivity was greater than 90%.

Take B33: the “Activity PPI cleavage” value was “yes” and the Selectivity was greater than 90%.

Turning to B34, the “Activity PPI cleavage” value is on record as “yes” and the Selectivity is listed as greater than 80%.

As for B35, the “Activity PPI cleavage” value is on record as “yes” and the Selectivity is given as greater than 65%.

As for B6, the “Activity PPI cleavage” value is “yes” and the Selectivity is reported as greater than 80%.

Take B36: the “Activity PPI cleavage” value was “yes” and the Selectivity is greater than 90%.

As for B7, the “Activity PPI cleavage” value is on record as “yes” and the Selectivity is reported as greater than 90%.

In the case of B8, the “Activity PPI cleavage” value was “yes” and the Selectivity is on record as greater than 90%.

Regarding B37, the “Activity PPI cleavage” value is listed as “yes” and the Selectivity is given as greater than 90%.
